This passage reports binding result and Kd results from patent US20200292534A1 (PROMEGA, published 2020).

Starred links: 1 amine or outer side, 2 acyl side, 3 side chain; linkers in the order of their positions; H or OH if unused. No end group written: not given here. NH(CH2)3(OCH2CH2)2O(CH2)3NH = C(CN[*:1])COCCOCCOCCCN[*:2]

Assay [1] has as its target T1, NLpoly11S.
T1 construct: Non-luminescent polypeptide (engineered large fragment of NanoLuc); Used as E. coli clarified lysate or as purified protein; also called 11S (12 - A51T); LSP 11S
T1 chain: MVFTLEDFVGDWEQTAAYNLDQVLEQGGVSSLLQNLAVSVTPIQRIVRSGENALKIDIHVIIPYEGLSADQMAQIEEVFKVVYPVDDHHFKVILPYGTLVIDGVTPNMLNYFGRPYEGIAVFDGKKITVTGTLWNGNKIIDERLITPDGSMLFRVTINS
Description: luminescence complementation titration on purified NLPoly11S, 1 site specific binding fit.

The target of assay [2] is T1, NLpoly11S. Description: luminescence complementation titration, one-site specific binding fit.
In assay [3] the target is T1, NLpoly11S. Kind of assay: luminescence of purified NLpoly11S in NanoGlo with peptide.
The target of assay [4] is T1, NLpoly11S. Kind of assay: luminescence complementation titration at several furimazine concentrations, 1-site fit.
Assay [5] deals with T2, NLpoly WT.
T2 construct: also called WT NLpoly
T2 chain: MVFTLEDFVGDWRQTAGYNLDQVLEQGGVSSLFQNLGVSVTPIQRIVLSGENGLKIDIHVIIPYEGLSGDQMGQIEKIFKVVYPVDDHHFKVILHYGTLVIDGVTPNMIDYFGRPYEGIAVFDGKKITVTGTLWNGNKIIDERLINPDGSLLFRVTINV
Description: luminescence complementation titration (E. coli lysate NLpoly, synthetic NLpep), one site-specific binding fit.

In assay [6] the target is T1, NLpoly11S. Description: spectral scan of luminescence, purified NLpoly11S + peptide.
In assay [7] the target is T2, NLpoly WT. Kind of assay: BRET wavelength scan, NLpoly WT lysate + peptide.

B1: NLpep114 (peptide)
peptide: VTGYRLFEEIL
notes: Synthetic; also called NLpep114 (w/o Met)
As to B1, the binding result in assay [1] is listed as “binds”.

Consider Ac-VTGYRLFEEIL-NH2 [array2.52], for which the Kd in assay [2] came to 104 µM.

Turning to GWALFKK (not fully specified (N-terminus); printed as Dabcyl-GWALFKK, Quencher peptide) [Dabcyl-GWALFKK], the binding result in assay [3] was “binds”.

In the case of GVTGWRLCERILA (also called NLpepWT; NLPep1 (WT)) [NLpep1], the binding result in assay [4] is “binds”. This molecule also came in with a Kd in assay [5] of about 10 µM.

B2: GWALFKK (peptide)
peptide: GWALFKK
notes: Dark peptide; also called NLpep162 (w/o Met)
On to B2, for which, in assay [3], the binding result is listed as “binds”.

B3: PBI-4877 (peptide)
peptide: GVTGWRLCERILA-{NH(CH2)3(OCH2CH2)2O(CH2)3NH-6‑tetramethylrhodamine}
notes: also called NLpep1-TMR; NLPep1-fluorophore
For B3, the binding result in assay [6] and in assay [7] was “binds” each time.
